The text below walks through data of patent publication US20110217291A1.

For test [1], the target named is IgG of IgG Sepharose 6 Fast Flow resin (GE Healthcare). The test is described as follows: IgG-Sepharose column, 24 h CHO conditioned media, Western blot.
Test [2] has the same target. Briefly: batch binding of 293F conditioned media to IgG Sepharose, Western blot quantitation, n=2.

B1: FcγRIIIA/RIA-CH6 (soluble hybrid receptor: first Ig domain of FcγRIIIA followed by second and third Ig domains of FcγRIA, C-terminal six His tag) (receptor)
chain: EDLPKAVVFLEPQWYRVLEKDSVTLKCQGAYSPEDNSTQWFHNESLISSQASSYFIDAATVDDSGEYRCQTNLSTLSDPVQLEVHIGWLLLQVSSRVFTEGEPLALRCHAWKDKLVYNVLYYRNGKAFKFFHWNSNLTILKTNISHNGTYHCSGMGKHRYTSAGISVTVKELFPAPVLNASVTSPLLEGNLVTLSCETKLLLQRPGLQLYFSFYMGSKTLRGRNTSSEYQILTARREDSGLYWCEAATEDGNVLKRSPELELQVLGGSGGHHHHHH
For the molecule B1, in test [1], the percent of total applied bound to IgG-Sepharose came out at 53% and the percent of total applied in the wash (unbound) was 47%. Besides, in test [2], the percent of total expressed in IgG Sepharose flow-through (aggregate amount) was determined as 36% and the percent of total expressed recovered from IgG resin stood at 82%.

B2: FcγRIIA/RIA-CH6 (soluble hybrid receptor: first Ig domain of FcγRIIA followed by second and third Ig domains of FcγRIA, C-terminal six His tag) (receptor)
chain: AAPPKAVLKLEPPWINVLQEDSVTLTCQGARSPESDSIQWFHNGNLIPTHTQPSYRFKANNNDSGEYTCQTGQTSLSDPVHLTVLSEWLLLQVSSRVFTEGEPLALRCHAWKDKLVYNVLYYRNGKAFKFFHWNSNLTILKTNISHNGTYHCSGMGKHRYTSAGISVTVKELFPAPVLNASVTSPLLEGNLVTLSCETKLLLQRPGLQLYFSFYMGSKTLRGRNTSSEYQILTARREDSGLYWCEAATEDGNVLKRSPELELQVLGGSGGHHHHHH
In the case of B2, in test [2], the percent of total expressed in IgG Sepharose flow-through (aggregate amount) came out at 14.2% and the percent of total expressed recovered from IgG resin came out at 40%.
